Data on one molecule can be found in CN1552735A.

For test [1], the target named is CD44抗原 (THP-1细胞系表面) (UniProt P16070). Description: flow cytometry on CD44-positive THP-1 cells, HI44a 20 μl (1 mg/ml) then PBS (positive control), goat anti-mouse IgG-FITC. On the technique in general: A flow cytometer gives signals particle by particle.
Test [2] has the same target. Description: flow cytometry on THP-1 cells, HI44a 20 μl (1 mg/ml) then competitor anti-CD44 ScFv 100 μl (1 mg/ml), goat anti-mouse IgG-FITC.

B1: 抗CD44单克隆抗体HI44a (antibody, IgG2a, V domains shown)
VH: QVKLQESGPGILQPSQTLSLTCSISGFSLNTSGMGVSWIRQPSGKGLEWLAHIYWDDGKRYNPSLKSRLTISKDTSRNQVFLKITSVDTADTGTYYCARRAYGINFAFDYWGQGTTVTVSS
VL: DIQLTQTAAILSVSPGERVSFSCRTSQSIGTSIHWYHQRTNGSPRLLIKSASESMSGIPSRFSGSGSGTDFTLSINSVESEDIAYYYCQQSNSWPLTFGAGTKLEIKR
In the case of B1, the 结合阳性率 in test [1] turned out to be 51%. The molecule also returned a 结合阳性率 (经抗CD44 ScFv竞争后) in test [2] of 27.1%.
